Experimental data: publication PMC4608255, “ATP binding to neighbouring subunits and intersubunit allosteric coupling underlie proteasomal ATPase function” (Nature Communications, 2015)

Experiments:
[1] = target: T1, PAN (Methanocaldococcus jannaschii, UniProt Q58576); test: NADH-coupled ATPase assay, Hill equation; format: biochemical; conditions: 50 mM Tris-HCl pH 7.5, 5 mM MgCl2; 100 nM PAN
T1 construct: recombinant from pRSETA, homohexamer
T1 sequence (Q58576 1-430): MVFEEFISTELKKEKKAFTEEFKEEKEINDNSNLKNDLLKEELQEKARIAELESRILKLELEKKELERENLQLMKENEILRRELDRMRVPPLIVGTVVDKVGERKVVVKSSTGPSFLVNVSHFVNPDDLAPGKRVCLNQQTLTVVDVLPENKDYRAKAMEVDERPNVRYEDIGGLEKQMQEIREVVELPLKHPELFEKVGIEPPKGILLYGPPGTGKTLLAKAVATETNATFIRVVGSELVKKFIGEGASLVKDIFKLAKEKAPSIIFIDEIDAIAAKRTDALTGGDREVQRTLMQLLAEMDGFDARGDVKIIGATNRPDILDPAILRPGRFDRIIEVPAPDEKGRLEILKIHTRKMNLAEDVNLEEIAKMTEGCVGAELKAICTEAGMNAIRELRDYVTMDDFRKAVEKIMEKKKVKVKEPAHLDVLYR
Source text: NADH-coupled ATPase assay, Hill equation on PAN | Vmax, KM and Hill coefficient (h) values were obtained by nonlinear regression analysis

[2] = target: archaeal 20S proteasome (UniProt P25156)
[3] = target: the molecule itself; test: native gel or EMSA; native gel of the PAN mutants; conditions not given

Sequence of archaeal 20S proteasome (P25156 whole entry, chain 1 of 2): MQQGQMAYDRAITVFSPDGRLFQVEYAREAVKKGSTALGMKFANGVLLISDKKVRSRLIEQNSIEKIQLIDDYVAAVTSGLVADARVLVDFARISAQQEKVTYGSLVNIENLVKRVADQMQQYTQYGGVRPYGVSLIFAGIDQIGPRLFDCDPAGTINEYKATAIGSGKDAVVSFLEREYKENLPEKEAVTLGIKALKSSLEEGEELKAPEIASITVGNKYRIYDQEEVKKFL
Sequence of archaeal 20S proteasome (chain, as listed by the source, chain 2 of 2): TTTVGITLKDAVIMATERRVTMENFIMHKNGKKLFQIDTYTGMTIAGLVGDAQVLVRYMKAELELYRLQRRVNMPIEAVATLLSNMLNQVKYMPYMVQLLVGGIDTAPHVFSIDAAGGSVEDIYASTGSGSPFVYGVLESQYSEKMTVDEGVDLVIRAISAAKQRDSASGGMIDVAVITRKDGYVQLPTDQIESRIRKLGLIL

Nc1ncnc2c1ncn2[C@@H]1O[C@H](COP(=O)(O)OP(=O)(O)OP(=O)(O)O)[C@@H](O)[C@H]1O [ATP]
Km [1]: 261 ± 8 µM

B1: PAN wild type (enzyme)
chain: MVFEEFISTELKKEKKAFTEEFKEEKEINDNSNLKNDLLKEELQEKARIAELESRILKLELEKKELERENLQLMKENEILRRELDRMRVPPLIVGTVVDKVGERKVVVKSSTGPSFLVNVSHFVNPDDLAPGKRVCLNQQTLTVVDVLPENKDYRAKAMEVDERPNVRYEDIGGLEKQMQEIREVVELPLKHPELFEKVGIEPPKGILLYGPPGTGKTLLAKAVATETNATFIRVVGSELVKKFIGEGASLVKDIFKLAKEKAPSIIFIDEIDAIAAKRTDALTGGDREVQRTLMQLLAEMDGFDARGDVKIIGATNRPDILDPAILRPGRFDRIIEVPAPDEKGRLEILKIHTRKMNLAEDVNLEEIAKMTEGCVGAELKAICTEAGMNAIRELRDYVTMDDFRKAVEKIMEKKKVKVKEPAHLDVLYR
LFP peptide hydrolysis by the 20S (20 nM) with PAN (80 nM) and 10 μM ATPγS (gate opening) [2]: 9 fold

B2: PAN-R328/331A (enzyme, UniProt Q58576 1-430, looked up)
chain: MVFEEFISTELKKEKKAFTEEFKEEKEINDNSNLKNDLLKEELQEKARIAELESRILKLELEKKELERENLQLMKENEILRRELDRMRVPPLIVGTVVDKVGERKVVVKSSTGPSFLVNVSHFVNPDDLAPGKRVCLNQQTLTVVDVLPENKDYRAKAMEVDERPNVRYEDIGGLEKQMQEIREVVELPLKHPELFEKVGIEPPKGILLYGPPGTGKTLLAKAVATETNATFIRVVGSELVKKFIGEGASLVKDIFKLAKEKAPSIIFIDEIDAIAAKRTDALTGGDREVQRTLMQLLAEMDGFDARGDVKIIGATNRPDILDPAILAPGAFDRIIEVPAPDEKGRLEILKIHTRKMNLAEDVNLEEIAKMTEGCVGAELKAICTEAGMNAIRELRDYVTMDDFRKAVEKIMEKKKVKVKEPAHLDVLYR
notes: PAN, archaeal proteasomal ATPase; Vector pRSETA; also called double mutant; double-arginine mutant; source: expression vector in pRSETA made by site-directed mutagenesis
stoichiometry N [3]: 6

B3: PAN-R328A (enzyme, UniProt Q58576 1-430, looked up)
chain: MVFEEFISTELKKEKKAFTEEFKEEKEINDNSNLKNDLLKEELQEKARIAELESRILKLELEKKELERENLQLMKENEILRRELDRMRVPPLIVGTVVDKVGERKVVVKSSTGPSFLVNVSHFVNPDDLAPGKRVCLNQQTLTVVDVLPENKDYRAKAMEVDERPNVRYEDIGGLEKQMQEIREVVELPLKHPELFEKVGIEPPKGILLYGPPGTGKTLLAKAVATETNATFIRVVGSELVKKFIGEGASLVKDIFKLAKEKAPSIIFIDEIDAIAAKRTDALTGGDREVQRTLMQLLAEMDGFDARGDVKIIGATNRPDILDPAILAPGRFDRIIEVPAPDEKGRLEILKIHTRKMNLAEDVNLEEIAKMTEGCVGAELKAICTEAGMNAIRELRDYVTMDDFRKAVEKIMEKKKVKVKEPAHLDVLYR
notes: PAN, archaeal proteasomal ATPase; Vector pRSETA; source: expression vector in pRSETA made by site-directed mutagenesis
stoichiometry N [3]: 6

B4: PAN-R331A (enzyme, UniProt Q58576 1-430, looked up)
chain: MVFEEFISTELKKEKKAFTEEFKEEKEINDNSNLKNDLLKEELQEKARIAELESRILKLELEKKELERENLQLMKENEILRRELDRMRVPPLIVGTVVDKVGERKVVVKSSTGPSFLVNVSHFVNPDDLAPGKRVCLNQQTLTVVDVLPENKDYRAKAMEVDERPNVRYEDIGGLEKQMQEIREVVELPLKHPELFEKVGIEPPKGILLYGPPGTGKTLLAKAVATETNATFIRVVGSELVKKFIGEGASLVKDIFKLAKEKAPSIIFIDEIDAIAAKRTDALTGGDREVQRTLMQLLAEMDGFDARGDVKIIGATNRPDILDPAILRPGAFDRIIEVPAPDEKGRLEILKIHTRKMNLAEDVNLEEIAKMTEGCVGAELKAICTEAGMNAIRELRDYVTMDDFRKAVEKIMEKKKVKVKEPAHLDVLYR
notes: as for B3
stoichiometry N [3]: 6
